In this assay the target is recombinant CgDM9CP-6 (DM9 domain containing protein 6 of Crassostrea gigas), His tag (Crassostrea gigas). Put plainly: BLI. (Biolayer interferometry detects binding as a change in optical thickness at a sensor tip.)

Results on one substance are retold here after PMC12379375.

Turning to “recombinant Cg14-3-3ε (14-3-3 epsilon of Crassostrea gigas), GST tag (natural protein)”, the Kd (usually the constant that tells how readily two partners part at equilibrium) turned out to be 3.81 µM.
